Reference: the supplement of paper PMC7877785
± gives the uncertainty stated by the source.

Test: self-splicing fitness, log relative to wild type (ln ratio); higher = more splicing; Tetrahymena group I intron in knt gene, E. coli kanamycin selection, DiMSum; sequences stand for … in CUCUCU…GGAGGGAAAAGUUAUCAGGCAUGCACCUGGUAGCUAGUCUUUAAACCAAUAGAUUGCAUCGGUUUAAAAGGCAAGACCGUCAAAUUGCGGGAAAGGGGUCAACAGCCGUUCAGUACCAAGUCUCAGGGGAAACUUUGAGAUGGCCUUGCAAAGGGUAUGGUAAUAAGCUGACGGACAUGGUCCUAACCACGCAGCCAAGUCCUAAGUCAACAGAUCUUCUGUUGAUAUGGAUGCAGUUCACAGACUAAAUGUCGGUCGGGGAAGAUGUAUUCUUCUCAUAAGAUAUAGUCGGACCUCUCCUUAAUGGGAGCUAGCGGAUGAAGUGAUGCAACACUGGAGCCGCUGGGAACUAAUUUGUAUGCGAAAGUAUAUUGAUUAGUUUUGGAGUACUCGUGGUCG
Summary of the method: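 A randomised library covering all eight P1ex-region intron nucleotides was built with the intron in the knt kanamycin-resistance gene on pET-22b(+) and held in E. coli BL21(DE3). Cells were grown overnight at 37°C or 30°C on LB agar, with or without 25 μg/mL kanamycin, plus 100 μg/mL carbenicillin, 50 μM IPTG and 0.2% rhamnose, and pooled colonies were amplicon-sequenced on an Illumina HiSeq 2500. DiMSum fitness is the error-weighted combination of wild-type-normalised replicate fold changes, kanamycin versus none.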

Sequence | self-splicing fitness (ln) (30 °C) | self-splicing fitness (ln) (37 °C)
GUGGAGCAAUAUUACGCAGU | -2.88 ± 0.18 | -2.58 ± 0.31
ACGAAGCAAUAUUACGGAAC | -3.19 ± 0.26 | -1.95 ± 0.25
CACAAGCAAUAUUACGUCCG | -0.428 ± 0.094 | 0.252 ± 0.12
GAGUAGCAAUAUUACGUAAC | -2.12 ± 0.1 | -2.95 ± 0.17
CUCGAGCAAUAUUACGGUCG | -3.59 ± 0.28 | -2.38 ± 0.34
CUGCAGCAAUAUUACGCCCG | -0.269 ± 0.098 | 0.148 ± 0.13
UGGUAGCAAUAUUACGAUCC | -0.523 ± 0.11 | -0.731 ± 0.16
CCCAAGCAAUAUUACGUCAA | -1.84 ± 0.14 | -2.3 ± 0.19
AUUGAGCAAUAUUACGCGUC | -3.26 ± 0.19 | -1.73 ± 0.2
GGGAAGCAAUAUUACGCCAU | -3.31 ± 0.25 | -0.83 ± 0.25
GGAUAGCAAUAUUACGCGCG | -1.25 ± 0.13 | 0.793 ± 0.15
UCCAAGCAAUAUUACGUGAU | -3.53 ± 0.12 | -1.31 ± 0.097
UCCGAGCAAUAUUACGCCCU | -2.74 ± 0.31 | 
GGUAAGCAAUAUUACGUAGA | -1.56 ± 0.13 | -1.54 ± 0.21
UUUGAGCAAUAUUACGCAGC | -3.5 ± 0.28 | -2.43 ± 0.21
CCGGAGCAAUAUUACGUAGA | -3.6 ± 0.19 | -2.66 ± 0.2
CUCGAGCAAUAUUACGGGCU | -3.17 ± 0.23 | -3.24 ± 0.42
UCUCAGCAAUAUUACGUUCU | -3.49 ± 0.16 | -1.86 ± 0.17
UGUCAGCAAUAUUACGGGUC | -3.4 ± 0.14 | -2.66 ± 0.15
CCGUAGCAAUAUUACGUACG | -2.13 ± 0.18 | -1.83 ± 0.21
GAUAAGCAAUAUUACGCAAU | -2.21 ± 0.13 | -0.936 ± 0.16
AAUUAGCAAUAUUACGUCUU | 0.444 ± 0.091 | 0.46 ± 0.098
UAUGAGCAAUAUUACGUGAU | -3.04 ± 0.15 | -2.76 ± 0.25
CGCAAGCAAUAUUACGUCUG | -1.13 ± 0.06 | -0.286 ± 0.075

Sequence | self-splicing fitness (ln) (30 °C) | self-splicing fitness (ln) (37 °C)
GCCGAGCAAUAUUACGGAAU | -1.1 ± 0.09 | -0.698 ± 0.11
GGUGAGCAAUAUUACGCAUA | -0.925 ± 0.15 | -1.55 ± 0.22
UUUUAGCAAUAUUACGAAUC |  | -1.38 ± 0.4
GACGAGCAAUAUUACGAUAC | -4.85 ± 0.28 | -2.16 ± 0.2
GGACAGCAAUAUUACGUUGC | -4.57 ± 0.24 | -2.83 ± 0.18
CGAUAGCAAUAUUACGUAUA | -2.37 ± 0.15 | -3.14 ± 0.23
ACCAAGCAAUAUUACGACCU | -0.493 ± 0.074 | -0.169 ± 0.087
CAGUAGCAAUAUUACGAUUA | -2.16 ± 0.13 | -1.73 ± 0.11
CCGGAGCAAUAUUACGUGCU | -2.99 ± 0.17 | -2.85 ± 0.24
GUAAAGCAAUAUUACGAGCA | 0.322 ± 0.08 | 0.673 ± 0.11
UGGUAGCAAUAUUACGUGGU | -4.36 ± 0.28 | -2.7 ± 0.36
AUAUAGCAAUAUUACGAAGG | -2.83 ± 0.3 | -2.3 ± 0.4
ACUAAGCAAUAUUACGCCUG | -1.78 ± 0.14 | -0.595 ± 0.15
GCUGAGCAAUAUUACGUUCC | -1.48 ± 0.2 | -1.84 ± 0.35
CGCAAGCAAUAUUACGCUAA | -2.42 ± 0.17 | -3.24 ± 0.33
GUUCAGCAAUAUUACGGGGA | -4.6 ± 0.46 | -2.56 ± 0.22
AUUCAGCAAUAUUACGAGCA | -0.457 ± 0.16 | -0.783 ± 0.2
UCUGAGCAAUAUUACGCUGU | -2 ± 0.23 | -1.07 ± 0.19
GUGGAGCAAUAUUACGUCUC | -3.56 ± 0.15 | -2.77 ± 0.16
UGGCAGCAAUAUUACGGUGU | -3.4 ± 0.14 | -2.41 ± 0.16
AACAAGCAAUAUUACGCAUG | -1.7 ± 0.082 | -0.726 ± 0.1
CAAGAGCAAUAUUACGUUGA | -3.98 ± 0.36 | -2.94 ± 0.21
CUUGAGCAAUAUUACGAGCG | -2.14 ± 0.1 | -0.889 ± 0.09
CGCGAGCAAUAUUACGGCAA | -4.21 ± 0.46 | -1.97 ± 0.28
